Target: T1, FLAG-Sec16 (1,101–1,600 aa) (human, UniProt O15027-4 1101-1600)
T1 sequence: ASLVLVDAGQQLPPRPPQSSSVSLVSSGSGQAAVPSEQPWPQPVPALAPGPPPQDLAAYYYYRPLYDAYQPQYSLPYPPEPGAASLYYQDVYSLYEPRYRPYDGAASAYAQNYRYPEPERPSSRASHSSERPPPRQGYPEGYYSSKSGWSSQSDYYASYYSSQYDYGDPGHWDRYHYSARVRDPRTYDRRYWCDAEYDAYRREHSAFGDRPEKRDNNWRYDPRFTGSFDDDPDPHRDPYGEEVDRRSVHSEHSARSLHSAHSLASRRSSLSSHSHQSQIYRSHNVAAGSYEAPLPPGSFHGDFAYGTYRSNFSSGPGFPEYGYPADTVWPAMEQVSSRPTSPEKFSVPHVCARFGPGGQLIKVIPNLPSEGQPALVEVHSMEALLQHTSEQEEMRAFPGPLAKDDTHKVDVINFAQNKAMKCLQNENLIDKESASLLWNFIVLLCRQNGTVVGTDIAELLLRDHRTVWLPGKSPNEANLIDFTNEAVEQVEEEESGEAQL
Assay: pull-down

B1: GST-tagged TANGO1-PRDΔ60 (1,651–1,847 aa) (domain or fragment)
chain: NTQNPPRRGPLSQNGSFGPSPVSGGECSPPLTVEPPVRPLSATLNRRDMPRSEFGSVDGPLPHPRWSAEASGKPSPSDPGSGTATMMNSSSRGSSPTRVLDEGKVNMAPKGPPPFPGVPLMSTPMGGPVPPPIRYGPPPQLCGPFGPRPLPPPFGPGMRPPLGLREFAPGVPPGRRDLPLHPRGFLPGHAPFRPLGS
Question: Does B1 bind?
Answer: Result: binds

B2: GST-tagged TANGO1-PRD (1,651–1,907 aa) (domain or fragment)
chain: NTQNPPRRGPLSQNGSFGPSPVSGGECSPPLTVEPPVRPLSATLNRRDMPRSEFGSVDGPLPHPRWSAEASGKPSPSDPGSGTATMMNSSSRGSSPTRVLDEGKVNMAPKGPPPFPGVPLMSTPMGGPVPPPIRYGPPPQLCGPFGPRPLPPPFGPGMRPPLGLREFAPGVPPGRRDLPLHPRGFLPGHAPFRPLGSLGPREYFIPGTRLPPPTHGPQEYPPPPAVRDLLPSGSRDEPPPASQSTSQDCSQALKQSP
Question: Does B2 bind?
Answer: Result: binds

From paper PMC5461033 (The Journal of Cell Biology, 2017)
